Assay results taken from paper PMC13235457 (2026).
Non-standard residues stand in square brackets, D forms with d. No end group written: not given here. pY = N[C@@H](Cc1ccc(OP(=O)(O)O)cc1)C(=O)O

Tests used:
[1] = target: Syk tandem SH2 (tSH2) domain; experiment: FP; 5 mM KCl, 145 mM NaCl
[2] = target: Syk tandem SH2 (tSH2) domain; experiment: FP; 50 mM KCl, 100 mM NaCl
[3] = target: Syk tandem SH2 (tSH2) domain; experiment: FP; 20 mM KCl, 130 mM NaCl
[4] = target: Syk tandem SH2 (tSH2) domain; experiment: FP; 0 mM KCl, 150 mM NaCl
[5] = target: Syk tandem SH2 (tSH2) domain; experiment: intrinsic Trp fluorescence; 50 mM KCl, 100 mM NaCl
[6] = target: Syk tandem SH2 (tSH2) domain; experiment: intrinsic Trp fluorescence; 5 mM KCl, 145 mM NaCl
[7] = target: Syk tandem SH2 (tSH2) domain; experiment: intrinsic Trp fluorescence; 0 mM KCl, 150 mM NaCl
[8] = target: Syk tandem SH2 (tSH2) domain; experiment: intrinsic Trp fluorescence; 20 mM KCl, 130 mM NaCl

## NQL[pY]NELNLGRREE[pY]DVLD (also: AlexaFluor 488 label, position not given here) [ITAM-ζ1-Y2P peptide labeled with AlexaFluor488]
[1]
  Kd: 85.5 nM
[2]
  Kd: 84.9 nM
[3]
  Kd: 81.1 nM
[4]
  Kd: 85.5 nM

## NQL[pY]NELNLGRREE[pY]DVLD [ITAM-ζ1-Y2P peptide (doubly phosphorylated first ITAM of the CD3-ζ chain)]
[5]
  Kd: 82.7 nM
[6]
  Kd: 86 nM
[7]
  Kd: 97.5 nM
[8]
  Kd: 84.3 nM
